Measured values taken from patent US20240409629A1 (CHIA TAI TIANQING PHARMACEUTICAL GROUP, published 2024).
Where a chain is given by its changes, count along the chain named. Where two headings read alike, the source gives them in different places. Each block holds one binder with its values, some of them ahead of it.

Legend:
human CLDN18.1 [1] = target: T1, human CLDN18.1 (human, UniProt P56856 1-261); experiment: FACS, U2OS-CLDN18.1 cells, antibody at 200 nM
T1 construct: also called claudin18.1
Protocol: (§1) Based on the FACS method, the binding activity of anti-CLDN18.2 antibodies for the cell line U2OS-CLDN18.1 overexpressing CLDN18.1 (SEQ ID NO: 2) was analyzed. The cell concentration was adjusted with PBS, and the U2OS-CLDN18.1 cells were added to a 96-well plate at 3×10⁵ cells/well, then the test antibodies were added to each well of the 96-well plate, the final concentration of the antibody was 200 nM, and the mixture was incubated at 4° C. for 60 min. The supernatant was discarded, the cells were washed 3 times with pre-cooled PBS buffer, PE-Goat Anti-Human IgG Fcγ (Jackson immunoresearch, Cat. No. 109-116-170) diluted at 1:200 was added at 100 μL/well, and the mixture was incubated at 4° C. for 30 min. Cells were washed 3 times with pre-cooled PBS buffer and resuspended in 100 μL of PBS buffer, and then the fluorescence signals were detected using a flow cytometer (Sartorius, iQUE3). The nonspecific binding of the anti-CLDN18.2 antibodies for U2OS-CLDN18.1 cells was measured by mean fluorescence intensity (MFI) of staining. The IgG1 isotype control antibody (prepared in-house, with the heavy and light chain amino acid sequences as set forth in SEQ ID NOs: 67 and 68 in the present disclosure) was used as the control, and 2-fold the IgG1 isotype control antibody was used as the benchmark, thus determining the presence or absence of nonspecific binding.

human CLDN18.1 [2] = target: T1, human CLDN18.1; experiment: FACS, U2OS-CLDN18.1 cells; MFI against 2-fold the IgG1 isotype control
Protocol: as §1

human CLDN18.2 [3] = target: T2, human CLDN18.2 (human); experiment: FACS, KATOIII cells (natural CLDN18.2)
T2 construct: also called claudin18.2
Protocol: (§2) Based on the FACS method, the binding activity of anti-CLDN18.2 antibodies for the cell line U2OS-CLDN18.2 overexpressing CLDN18.2 and the cell lines KATOIII (Cell Bank of the Chinese Academy of Sciences) and NUGC-4 (Cell Bank of the Chinese Academy of Sciences) naturally expressing CLDN18.2 was analyzed.
(§3) The cell concentration was adjusted with PBS, and cells (U2OS-CLDN18.2, KATOIII, or NUGC-4 cells) were added to a 96-well plate at 3×10⁵ cells/well, then the test antibodies at different concentrations were added to each well of the 96-well plate, and the mixture was incubated at 4° C. for 60 min. […] The supernatant was discarded, the cells were washed 3 times with pre-cooled PBS buffer, PE-Goat Anti-Human IgG Fcγ (Jackson immunoresearch, Cat. No. 109-116-170) diluted at 1:200 was added at 100 μL/well, and the mixture was incubated at 4° C. for 30 min. Cells were washed 3 times with pre-cooled PBS buffer and resuspended in 100 μL of PBS buffer, and then the fluorescence signals were detected using a flow cytometer (Sartorius, iQUE3). The binding ability of the anti-CLDN18.2 antibodies for CLDN18.2 was measured by mean fluorescence intensity (MFI) of staining.

human CLDN18.2 [4] = target: T2, human CLDN18.2; experiment: FACS, U2OS-CLDN18.2 cells
Protocol: as §2, §3

human CLDN18.2 [5] = target: T2, human CLDN18.2; experiment: cell-based or functional assay
human CLDN18.2 [6] = target: T2, human CLDN18.2; experiment: FACS, NUGC-4 cells (natural CLDN18.2)
Protocol: as §2, §3

human CLDN18.2 [7] = target: T2, human CLDN18.2; experiment: cell-based or functional assay; remark: listed apart in the source
human CLDN18.2 [8] = target: T2, human CLDN18.2; experiment: cell-based or functional assay; remark: listed apart in the source
human CLDN18.2 [9] = target: T2, human CLDN18.2; experiment: FACS, KATOIII cells (natural CLDN18.2); remark: listed apart in the source
Protocol: (§4) Based on the FACS method, the binding activity of anti-CLDN18.2 humanized antibodies for the cell lines KATOIII (Cell Bank of the Chinese Academy of Sciences) and NUGC-4 (Cell Bank of the Chinese Academy of Sciences) naturally expressing CLDN18.2 was analyzed. […] See Example 3 for the specific method.

human CLDN18.2 [10] = target: T2, human CLDN18.2; experiment: cell-based or functional assay; remark: listed apart in the source
human CLDN18.2 [11] = target: T2, human CLDN18.2; experiment: FACS, NUGC-4 cells (natural CLDN18.2); remark: listed apart in the source
Protocol: as §4

human CLDN18.2 [12] = target: T2, human CLDN18.2; experiment: cell-based or functional assay; remark: listed apart in the source

B2: humanized antibody hz28G3-1.1 (antibody, human IgG1, kappa, V domains shown)
VH: QVQLVQSGAEVKKPGASVKVSCKTSGYSFTDYLMLWVRQAPGQGLEWMGNINPYYGRTTYALKFKGRVTMTVDRSTSTVYMELSSLRSEDTAVYYCARDGYSLRNAMDYWGQGTLVTVSS
VL: DIVMTQSPDSLAVSLGERATINCKSSQSLFNSGNQKNYLAWYQQKPGQPPKLLIYGASTRESGVPDRFSGSGSGTDFTLTISSLQAEDVAVYYCQNAHSYPYTFGQGTKVEIKR
- ADCC EC50, PBMC effector cells, KATOIII target cells (human CLDN18.2 [7]): 0.048 nM
- ADCC EC50, PBMC effector cells, NIH-3T3-CLDN18.2 target cells (human CLDN18.2 [7]): 0.33 nM
- ADCC EC50, PBMC effector cells, NUGC-4 target cells (human CLDN18.2 [7]): 0.07 nM
- ADCC Maximum killing (%), PBMC effector cells, KATOIII target cells (human CLDN18.2 [7]): 11.5%
- ADCC Maximum killing (%), PBMC effector cells, NIH-3T3-CLDN18.2 target cells (human CLDN18.2 [7]): 28.1%
- ADCC Maximum killing (%), PBMC effector cells, NUGC-4 target cells (human CLDN18.2 [7]): 4.9%
- ADCC EC50, Jurkat-CD16a v158-NFAT-luciferase effector cells, KATOIII target cells (human CLDN18.2 [8]): 0.139 nM
- ADCC EC50, Jurkat-CD16a v158-NFAT-luciferase effector cells, U2OS-CLDN18.2 target cells (human CLDN18.2 [8]): 0.016 nM
- EC50 (human CLDN18.2 [9]): 8.11 nM
- CDC EC50, NIH-3T3-CLDN18.2 target cells (human CLDN18.2 [10]): 0.29 nM
- EC50 (human CLDN18.2 [11]): 11.1 nM

B3: 15F9 (antibody, human IgG1, kappa, V domains shown)
VH: QVQLVQSGSELKKPGASVKVSCKASGYTFTNYGINWVRQAPGQGLEWMGWINPNTGETTYAEEFKGRFVFSLDTSVSTAYLQISSLKAEDTAVYFCARLYYGNRFDSWGQGTLVTVSS
VL: B2 VL with F30L, K36R, A40T, G56W, H98Y, S99Y, Y102L, Q106G
- ADCC EC50, PBMC effector cells, KATOIII target cells (human CLDN18.2 [7]): 0.03 nM
- ADCC EC50, PBMC effector cells, NIH-3T3-CLDN18.2 target cells (human CLDN18.2 [7]): 0.18 nM
- ADCC EC50, PBMC effector cells, NUGC-4 target cells (human CLDN18.2 [7]): 0.3 nM
- ADCC Maximum killing (%), PBMC effector cells, KATOIII target cells (human CLDN18.2 [7]): 10.6%
- ADCC Maximum killing (%), PBMC effector cells, NIH-3T3-CLDN18.2 target cells (human CLDN18.2 [7]): 22.6%
- ADCC Maximum killing (%), PBMC effector cells, NUGC-4 target cells (human CLDN18.2 [7]): 4.34%
- ADCC EC50, PBMC effector cells, KATOIII target cells (human CLDN18.2 [12]): ~0.0155 nM
- ADCC Maximum killing (%), PBMC effector cells, KATOIII target cells (human CLDN18.2 [12]): 19.5%
- CDC EC50, NIH-3T3-CLDN18.2 target cells (human CLDN18.2 [10]): 0.25 nM

Second part, led by results:

- MFI (human CLDN18.1 [1]): 8030
- binding result (human CLDN18.1 [2]): no binding (tested: 200 nM)
- EC50 (human CLDN18.2 [3]): 13.9 nM
- EC50 (human CLDN18.2 [4]): 19.5 nM
- CDC EC50, U2OS-CLDN18.2 target cells (human CLDN18.2 [5]): 11.4 nM
- EC50 (human CLDN18.2 [6]): 512 nM
B1: chimeric antibody xi10D8 (antibody, human IgG1, kappa, V domains shown)
VH: QIQLAQSGPELKKPGETVKVSCKASGYTFKNYGMNWVKQAPGKGLKWMGWININTGEPRYAEEFKGRIAFSLETSASTAYLLINNLKNEDTATYFCARYGYGNSFPYWGQGTLVTVSA
VL: DIVMTQSPSSLTVTVGEKVTMSCKSSQSLLNSGNQRNYLTWYQQKPGQPPKLLIYWASTRESGVPDRFTGSGSGTAFTLTVSSVQAEDLAVYYCQNDYSYPLTFGAGTKLEMKR
notes: Mouse variable regions on human IgG1/kappa; defucosylated, expressed in FUT8-knockout CHO-S cells; also called chimeric 10D8

- ADCC EC50, PBMC effector cells, KATOIII target cells (human CLDN18.2 [7]): 1.03 nM
- ADCC EC50, PBMC effector cells, NIH-3T3-CLDN18.2 target cells (human CLDN18.2 [7]): 0.51 nM
- ADCC EC50, PBMC effector cells, NUGC-4 target cells (human CLDN18.2 [7]): 4.6 nM
- ADCC EC50, Jurkat-CD16a v158-NFAT-luciferase effector cells, KATOIII target cells (human CLDN18.2 [8]): 0.217 nM
- ADCC EC50, Jurkat-CD16a v158-NFAT-luciferase effector cells, U2OS-CLDN18.2 target cells (human CLDN18.2 [8]): 0.023 nM
- EC50 (human CLDN18.2 [9]): 7.01 nM
- CDC EC50, NIH-3T3-CLDN18.2 target cells (human CLDN18.2 [10]): 0.31 nM
- EC50 (human CLDN18.2 [11]): 10.5 nM
B4: humanized antibody hz28G3-1.3 (antibody, human IgG1, kappa, V domains shown)
VH: B2 VH with P41H, G44S
VL: B2 VL
- ADCC Maximum killing (%), PBMC effector cells, KATOIII target cells (human CLDN18.2 [7]): 25.3%
- ADCC Maximum killing (%), PBMC effector cells, NIH-3T3-CLDN18.2 target cells (human CLDN18.2 [7]): 44.3%
- ADCC Maximum killing (%), PBMC effector cells, NUGC-4 target cells (human CLDN18.2 [7]): 19%
